# Source: patent publication US11795460B2, “Compositions and methods for TTR gene editing and treating ATTR amyloidosis” (Intellia Therapeutics, Inc., priority 2017, dated 2023)
# Strand notation (5' to 3'): a small letter for the sugar, then the base; units joined by * are phosphorothioate-linked, units joined directly phosphodiester-linked; [ ] holds rarer units or linkages, { } end groups; capitals alone tell only the bases. m = 2'-O-methyl; r = 2'-OH (RNA)
# Columns and labels:
# [1] = test system: TTR mRNA; assay: TTR mRNA knockdown in primary human hepatocytes by quantitative PCR (Tables 34, 35); format: cell-based; conditions: TTR mRNA in PHH; LNP dose 300 ng mRNA cargo; gRNA:mRNA 1:2; 96 hours after treatment; biological triplicates; vs untreated control
# Method: In one experiment, PHH were cultured and treated with LNPs comprising Cas9 mRNA (SEQ ID NO:1) and a gRNA of interest (See FIG. 29, Table 34), as described in Example 4. The LNPs were prepared using the cross-flow procedure described above and purified and concentrated using PD-10 columns and Amicon centrifugal filter units, respectively. The LNPs were formulated with an N:P ratio of 6.0 and contained Lipid A, Cholesterol, DSPC, and PEG2k-DMG in a 50:38:9:2 molar ratio, respectively. The LNPs comprised a gRNA:mRNA ratio of 1:2, and the cells were treated at a dose of 300 ng (with respect to the amount of mRNA cargo delivered).
# (§1) Ninety-six (96) hours following LNP treatment (with biological triplicates for each condition), mRNA was purified from PHH cells using the Dynabeads mRNA DIRECT Kit (ThermoFisher Scientific) according to the manufacturer's protocol. Reverse Transcription (RT) was performed with Maxima reverse transcriptase (ThermoFisher Scientific) and a poly-dT primer. The resulting cDNA was purified with Ampure XP Beads (Agencourt). For Quantitative PCR, 2% of the purified cDNA was amplified with Taqman Fast Advanced Mastermix and 3 Taqman probe sets, TTR (Assay ID: Hs00174914_m1), GAPDH (Assay ID: Hs02786624_g1), and PPIB (Assay ID: Hs00168719_m1). The assays were run on the QuantStudio 7 Flex Real Time PCR System according to the manufacturer's instructions (Life Technologies). Relative expression of TTR mRNA was calculated by normalizing to the endogenous controls (GAPDH and PPIB) individually, and then averaged.
# In a separate experiment, TTR mRNA knockdown was evaluated following treatment with LNPs comprising G000480, G000486, and G000502. The LNPs were formulated and PHH were cultured and treated with the LNPs, each as described in the experiment above in this Example with the exception that the cells were treated at a dose of 100 ng (with respect to the amount of mRNA cargo delivered).
# as §1, with “(single treatment” for “(with biological triplicates”, “the High Capacity cDNA Reverse Transcription Kit” for “Maxima reverse transcriptase”, “according to the manufacturer's instructions.” for “and a poly-dT primer. The resulting cDNA was purified with Ampure XP Beads (Agencourt).”, “the” for “the purified”
# [2] = test system: TTR; assay: TTR editing in primary cyno hepatocytes electroporated with Spy Cas9 protein and sgRNAs (Tables 14, 15); format: cell-based, cynomolgus monkey; conditions: Table 14; primary cyno hepatocytes electroporated with Spy Cas9 protein (RNP) and sgRNAs
# Method: Primary liver hepatocytes. Primary human liver hepatocytes (PHH) and primary cynomolgus liver hepatocytes (PCH) (Gibco) were cultured per the manufacturer's protocol (Invitrogen, protocol 11.28.2012). In brief, the cells were thawed and resuspended in hepatocyte thawing medium with supplements (Gibco, Cat. CM7000) followed by centrifugation at 100 g for 10 minutes for human and 80 g for 4 minutes for cyno. The supernatant was discarded and the pelleted cells resuspended in hepatocyte plating medium plus supplement pack (Invitrogen, Cat. A1217601 and CM3000). Cells were counted and plated on Bio-coat collagen I coated 96-well plates (ThermoFisher, Cat. 877272) at a density of 33,000 cells/well for human or 60,000 cells/well for cyno (or 65,000 cells/well when assaying effects on TTR protein, described further below). Plated cells were allowed to settle and adhere for 6 or 24 hours in a tissue culture incubator at 37° C. and 5% CO2 atmosphere. After incubation cells were checked for monolayer formation and media was replaced with hepatocyte culture medium with serum-free supplement pack (Invitrogen, Cat. A1217601 and CM4000).
# […] formation was performed prior to electroporation or transfection of Spy Cas9 protein loaded with guide RNAs (RNPs) onto cells. For dual guide (dgRNAs), individual crRNA and trRNA was pre-annealed by mixing equivalent amounts of reagent and incubating at 95° C. for 2 min and cooling to room temperature. Single guide (sgRNAs) were boiled at 95° C. for 2 min and cooling to room temperature. The boiled dgRNA or sgRNA was incubated with Spy Cas9 protein in Optimem for 10 minutes at room temperature to form a ribonucleoprotein (RNP) complex.
# For RNP electroporation into primary human and cyno hepatocytes, the cells are thawed and resuspended in Lonza electroporation Primary Cell P3 buffer at a concentration of 2500 cells per μL for human hepatocytes and 3500 cells per μL for cyno hepatocytes. A volume of 20 μL of resuspended cells and 5 μL of RNP are mixed together per guide. 20 μL of the mixture is placed into a Lonza electroporation plate. The cells were electroporated using the Lonza nucleofector with the preset protocol EX-147. Post electroporation, the cells are transferred into a Biocoat plate containing pre-warmed maintenance media and placed in a tissue culture incubator at 37° C. and 5% CO2.
# Transfected cells were harvested post-transfection at 24, 48, or 72 hours. The genomic DNA was extracted from each well of a 96-well plate using 50 μL/well BuccalAmp DNA Extraction solution (Epicentre, Cat. QE09050) per manufacturer's protocol. All DNA samples were subjected to PCR and subsequent NGS analyses, as described herein.
# To quantitatively determine the efficiency of editing at the target location in the genome, sequencing was utilized to identify the presence of insertions and deletions introduced by gene editing.
# Primers were designed around the target site within the gene of interest (e.g. TTR), and the genomic area of interest was amplified.
# Additional PCR was performed per the manufacturer's protocols (Illumina) to add chemistry for sequencing. The amplicons were sequenced on an Illumina MiSeq instrument. The reads were aligned to a reference genome (e.g., the human reference genome (hg38), the cynomologus reference genome (mf5), the rat reference genome (rn6), or the mouse reference genome (mm10)) after eliminating those having low quality scores. The resulting files containing the reads were mapped to the reference genome (BAM files), where reads that overlapped the target region of interest were selected and the number of wild type reads versus the number of reads which contain an insertion, substitution, or deletion was calculated.
# The editing percentage (e.g., the “editing efficiency” or “percent editing” or “indel frequency”) is defined as the total number of sequence reads with insertions/deletions (“indels”) or substitutions over the total number of sequence reads, including wild type. […]
Molecule,Avg % Knockdown [1],Avg % Deletion [2],Avg % Edit [2],Avg % Insert [2]
"G000571: TTR sgRNA modified sequence, Human, SEQ ID No. 112; guide sequence of CR005301 (nucleic acid) guide: mG*mU*mC*rArCrArGrArArArCrArCrUrCrArCrCrGrUrGrUrUrUrUrArGrAmGmCmUmAmGmAmAmAmUmAmGmCrArArGrUrUrArArArArUrArArGrGrCrUrArGrUrCrCrGrUrUrArUrCrAmAmCmUmUmGmAmAmAmAmAmGmUmGmGmCmAmCmCmGmAmGmUmCmGmGmUmGmCmU*mU*mU*mU",96.17%,–,–,–
"G000567: TTR sgRNA modified sequence, Human, SEQ ID No. 109; guide sequence of CR003352 (nucleic acid) guide: mG*mA*mA*rArGrGrCrUrGrCrUrGrArUrGrArCrArCrCrGrUrUrUrUrArGrAmGmCmUmAmGmAmAmAmUmAmGmCrArArGrUrUrArArArArUrArArGrGrCrUrArGrUrCrCrGrUrUrArUrCrAmAmCmUmUmGmAmAmAmAmAmGmUmGmGmCmAmCmCmGmAmGmUmCmGmGmUmGmCmU*mU*mU*mU",90.89%,–,–,–
"G000570: TTR sgRNA modified sequence, Human, SEQ ID No. 111; guide sequence of CR003347 (nucleic acid) guide: mC*mA*mU*rUrGrArUrGrGrCrArGrGrArCrUrGrCrCrUrGrUrUrUrUrArGrAmGmCmUmAmGmAmAmAmUmAmGmCrArArGrUrUrArArArArUrArArGrGrCrUrArGrUrCrCrGrUrUrArUrCrAmAmCmUmUmGmAmAmAmAmAmGmUmGmGmCmAmCmCmGmAmGmUmCmGmGmUmGmCmU*mU*mU*mU",93.38%,–,–,–
"G000494: TTR sgRNA modified sequence, Human, SEQ ID No. 101; guide sequence of CR003360 (nucleic acid) guide: mG*mU*mG*rArGrUrCrUrGrGrArGrArGrCrUrGrCrArUrGrUrUrUrUrArGrAmGmCmUmAmGmAmAmAmUmAmGmCrArArGrUrUrArArArArUrArArGrGrCrUrArGrUrCrCrGrUrUrArUrCrAmAmCmUmUmGmAmAmAmAmAmGmUmGmGmCmAmCmCmGmAmGmUmCmGmGmUmGmCmU*mU*mU*mU",91.15%,2.07%,81.53%,79.57%
"G000499: TTR sgRNA modified sequence, Human, SEQ ID No. 106; guide sequence of CR005303 (nucleic acid) guide: mU*mG*mA*rArUrCrCrArArGrUrGrUrCrCrUrCrUrGrArGrUrUrUrUrArGrAmGmCmUmAmGmAmAmAmUmAmGmCrArArGrUrUrArArArArUrArArGrGrCrUrArGrUrCrCrGrUrUrArUrCrAmAmCmUmUmGmAmAmAmAmAmGmUmGmGmCmAmCmCmGmAmGmUmCmGmGmUmGmCmU*mU*mU*mU",91.38%,1.43%,83.40%,82.00%
"G000498: TTR sgRNA modified sequence, Human, SEQ ID No. 105; guide sequence of CR003359 (nucleic acid) guide: mA*mG*mU*rGrArGrUrCrUrGrGrArGrArGrCrUrGrCrArGrUrUrUrUrArGrAmGmCmUmAmGmAmAmAmUmAmGmCrArArGrUrUrArArArArUrArArGrGrCrUrArGrUrCrCrGrUrUrArUrCrAmAmCmUmUmGmAmAmAmAmAmGmUmGmGmCmAmCmCmGmAmGmUmCmGmGmUmGmCmU*mU*mU*mU",–,22.87%,91.37%,68.50%
"G000568: TTR sgRNA modified sequence, Human, SEQ ID No. 110; guide sequence of CR003391 (nucleic acid) guide: mG*mG*mC*rUrGrUrCrGrUrCrArCrCrArArUrCrCrCrArGrUrUrUrUrArGrAmGmCmUmAmGmAmAmAmUmAmGmCrArArGrUrUrArArArArUrArArGrGrCrUrArGrUrCrCrGrUrUrArUrCrAmAmCmUmUmGmAmAmAmAmAmGmUmGmGmCmAmCmCmGmAmGmUmCmGmGmUmGmCmU*mU*mU*mU",53.44%,–,–,–
"G000483: TTR sgRNA modified sequence, Human, SEQ ID No. 90; guide sequence of CR005298 (nucleic acid) guide: mU*mC*mC*rArCrUrCrArUrUrCrUrUrGrGrCrArGrGrArGrUrUrUrUrArGrAmGmCmUmAmGmAmAmAmUmAmGmCrArArGrUrUrArArArArUrArArGrGrCrUrArGrUrCrCrGrUrUrArUrCrAmAmCmUmUmGmAmAmAmAmAmGmUmGmGmCmAmCmCmGmAmGmUmCmGmGmUmGmCmU*mU*mU*mU",68.78%,–,–,–
"G000485: TTR sgRNA modified sequence, Human, SEQ ID No. 92; guide sequence of CR003336 (nucleic acid) guide: mC*mC*mU*rCrCrUrCrUrGrCrCrUrUrGrCrUrGrGrArCrGrUrUrUrUrArGrAmGmCmUmAmGmAmAmAmUmAmGmCrArArGrUrUrArArArArUrArArGrGrCrUrArGrUrCrCrGrUrUrArUrCrAmAmCmUmUmGmAmAmAmAmAmGmUmGmGmCmAmCmCmGmAmGmUmCmGmGmUmGmCmU*mU*mU*mU",–,1.07%,22.93%,22.00%
"G000572: TTR sgRNA modified sequence, Human, SEQ ID No. 113; guide sequence of CR003385 (nucleic acid) guide: mC*mC*mC*rCrUrArCrUrCrCrUrArUrUrCrCrArCrCrArGrUrUrUrUrArGrAmGmCmUmAmGmAmAmAmUmAmGmCrArArGrUrUrArArArArUrArArGrGrCrUrArGrUrCrCrGrUrUrArUrCrAmAmCmUmUmGmAmAmAmAmAmGmUmGmGmCmAmCmCmGmAmGmUmCmGmGmUmGmCmU*mU*mU*mU",55.92%,–,–,–
"G000491: TTR sgRNA modified sequence, Human, SEQ ID No. 98; guide sequence of CR003338 (nucleic acid) guide: mA*mU*mA*rCrCrArGrUrCrCrArGrCrArArGrGrCrArGrGrUrUrUrUrArGrAmGmCmUmAmGmAmAmAmUmAmGmCrArArGrUrUrArArArArUrArArGrGrCrUrArGrUrCrCrGrUrUrArUrCrAmAmCmUmUmGmAmAmAmAmAmGmUmGmGmCmAmCmCmGmAmGmUmCmGmGmUmGmCmU*mU*mU*mU",–,1.90%,66.20%,64.37%
"G000484: TTR sgRNA modified sequence, Human, SEQ ID No. 91; guide sequence of CR003367 (nucleic acid) guide: mA*mG*mA*rCrArCrCrArArArUrCrUrUrArCrUrGrGrArGrUrUrUrUrArGrAmGmCmUmAmGmAmAmAmUmAmGmCrArArGrUrUrArArArArUrArArGrGrCrUrArGrUrCrCrGrUrUrArUrCrAmAmCmUmUmGmAmAmAmAmAmGmUmGmGmCmAmCmCmGmAmGmUmCmGmGmUmGmCmU*mU*mU*mU",75.22%,–,–,–
